B1: KCNA3 (parent)
chain: YQSGGRIRRPVNVPIDIFSEEIRF
B2: HDAC6 (parent)
chain: DLMETTQYMNEGELRVLADTYDSV

Variants of: B1
Assay: protein stability index of a GFP-peptide fusion (GPS, HEK-293T) (PSI 1-6); higher = more stable
Conditions: c terminus: a fixed tail appended
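Further: lentivirally expressed fusions sorted by FACS into six bins by GFP to DsRed ratio, PSI derived from sequencing read proportions per bin multiplied by bin number.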

Protein stability index, by site and new letter:
G4: M 2.1; W 2; T 2.28; A 1.69; Y 1.79; I 2.06; H 1.97; V 2.05; C 1.93; P 2.21; S 3.01; Q 2.37; L 2.31; K 2.82; N 1.92; D 2.07; R 2.15; F 1.83; E 2.73
Q2: Y 2.46; N 2.52; K 1.92; F 1.79; E 2.33; S 1.96; C 2.19; T 2.47; H 3.93; W 1.87; D 2.74; A 2.35; G 2.7; R 2.07; V 1.94; L 2.41; P 2.07; I 1.22; M 2.04
Y1: W 2.48; Q 2.76; D 3.1; F 1.83; I 2.53; L 2.08; K 2.77; E 2.74; P 3.43; S 3.58; N 2.89; C 2.49; V 2.58; M 2.42; R 2.67; H 2.98; A 3.31; T 2.55; G 2.83
R8: L 1.26; C 2.03; S 1.44; D 2.13; A 2.57; T 2.07; Q 1.67; N 2.2; K 2.47; E 2.3; I 3.3; V 1.77; M 2.03; F 2.03; H 4.19; P 2.02; Y 3.3
R6: V 1.95; H 2.23; A 1.9; D 2.15; P 1.91; I 1.9; C 1.85; N 2.11; W 1.86; K 1.59; E 2.34; Y 1.86; S 2.08; F 1.65; G 1.85; T 1.76; L 1.31; Q 2.79
P10: D 1.87; F 1.39; G 2.48; A 2.31; C 2.03; E 2.02
I7: C 2.38; G 2.41; E 2.17; M 2.44; P 2.51; D 2.92; K 3.34; S 2.38; Y 2.04; V 2.4; L 1.69; Q 2.52; W 2.77; F 1.62; H 1.57; N 1.73; R 1.86; T 1.91; A 2.83
S3: A 2.82; Q 2.44; I 1.58; Y 2.21; E 2.93; D 2.41; F 1.64; G 1.81; L 2.23; T 2.06; W 2.27; M 1.56; P 2.22; N 2.23; R 2.59; V 2.01; K 2.24; H 2.84; C 1.46
R9: D 1.62; C 2.35; V 1.41; K 1.78; A 2.45; E 2.26; Q 1.87; M 1.61; L 2.05; P 2.26; H 3.44; G 2.23; T 2.48; N 2.12; S 2.06; I 2.27; F 1.81; Y 1.72
G5: W 3.41; N 2; H 2.9; Y 1.49; M 1.37; S 2.37; L 2.09; T 2.54; V 2.05; D 2.02; Q 2.5; E 2.58; A 2.38; F 1.68; P 2.32; R 2.08; I 1.94; C 1.91; K 2.2

Variants of: B2
Assay: as above
Conditions: c terminus: a fixed tail appended

Protein stability index of substitutions, site by site:
S23: L 1.94; Q 1.24; D 1.92; E 1.97; G 2.72; T 2.05; M 2.33
Y21: H 1.72; S 2.26; M 1.44; L 1.96; A 2.69; K 2.74; G 2.66; D 3.31; N 1.61
D19: T 1.83; Q 1.92; P 2.67; S 2.12; Y 1.44; H 2.42
V24: L 2.11; M 2.24; F 1.92; A 1.73; Y 1.49; W 1.66
A18: F 1.86; W 1.7; P 3.97; E 2.11; T 1.94
L2: W 3.31; D 5.2; T 4.52; P 4.8; I 1.55; N 4.32; V 1.62; A 2.33; H 5.04; E 4.57
L17: V 1.64; H 2.12; T 3.59; C 3.03; P 4.47; D 5.03; Q 3.11; A 2.33; W 2.33
D1: K 2.28; W 1.55; R 3.01; A 1.77; F 2.46; V 1.25
T6: S 1.56; M 1.63; C 2.5; W 1.73; H 2.29; P 2.3; Q 1.94; F 1.44
E11: C 2.47; H 2.78; N 3.13; R 3.19
E13: Q 4.13; D 3.9; M 2.65; F 2.66; R 3.63; S 3.56; K 3.69; A 3.38
Q7: S 2.02; A 1.53; K 2.12; H 1.14; N 2.12; Y 2.52
D22: Y 2.7; Q 2.29; G 1.76; I 2.16; V 1.74; F 1; L 2.14
G12: C 3.07; E 4.82; V 2.85; R 3.71; S 3.58; M 3.18; I 2.9; L 3.56; Q 4.16
V16: I 2.1; N 4.06; P 4.81; C 2.72; Q 4.23; M 3.99; W 3.54; R 4.01
E4: C 1.74; M 1.31; D 2.52; P 2.23; G 1.7; V 1.83; K 2.09; Y 1.51
N10: Q 2.07; T 2.21; Y 3.32
M3: H 3.91; R 3.77; F 2.22; I 2.13; V 2.2; E 3.74; N 4.55; A 3.05; D 4.6
Y8: Q 4.22; G 4.5; L 4.27; N 4.67
L14: T 3.56; M 1.62; F 1.74; W 2.48; C 1.97; A 2.11
R15: I 2.2; T 2.58; D 3.8
M9: Q 4.92; W 3.37; T 4.82; F 3.44; R 4.28; Y 4.31; G 4.71; D 4.95; I 4.14
T5: S 1.96; V 1.5; Y 1.38; Q 1.99; L 1.39; N 2.32; M 1.71
T20: D 2.83; E 2.41; M 1.62; S 2.13
